Reference: paper PMC9850916

Molecular target: mutant human FcγRIIIa (V158) ectodomain (amino acid residues 1–175) with nine amino acid mutations a (human)
Experiment: SPR

Expi293-derived adalimumab (antibody)
Kd: 1.55 µM
koff: 0.062 s⁻¹
kon: 40000 M⁻¹ s⁻¹
